This note sets out measurements from publication PMC5401896 (2017).

For experiment [1], the target named is T1, CD20 (Homo sapiens, UniProt P11836).
T1 chain: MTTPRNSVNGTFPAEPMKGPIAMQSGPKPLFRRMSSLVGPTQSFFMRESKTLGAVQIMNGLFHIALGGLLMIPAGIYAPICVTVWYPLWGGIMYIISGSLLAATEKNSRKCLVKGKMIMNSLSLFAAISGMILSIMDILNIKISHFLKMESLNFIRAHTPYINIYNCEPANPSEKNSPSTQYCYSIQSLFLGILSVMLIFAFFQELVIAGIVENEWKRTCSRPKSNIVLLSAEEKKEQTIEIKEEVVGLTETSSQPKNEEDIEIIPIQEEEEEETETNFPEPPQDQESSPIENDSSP
Nature of the experiment: real-time cell binding (bivalent, Daudi).

Experiment [2] addresses T1, CD20. Nature of the experiment: real-time cell binding (one-to-two, Daudi).
Experiment [3] has as its target T1, CD20. Nature of the experiment: real-time cell binding (one-to-one, Ramos).

B1: Rituximab (antibody, V domains shown)
VH: QVQLQQPGAELVKPGASVKMSCKASGYTFTSYNMHWVKQTPGRGLEWIGAIYPGNGDTSYNQKFKGKATLTADKSSSTAYMQLSSLTSEDSAVYYCARSTYYGGDWYFNVWGAGTTVTVSA
VL: QIVLSQSPAILSASPGEKVTMTCRASSSVSYIHWFQQKPGSSPKPWIYATSNLASGVPVRFSGSGSGTSYSLTISRVEAEDAATYYCQQWTSNPPTFGGGTKLEIK
Turning to B1, the Kd came out at 7.8 nM in the experiment with CD20 [1], 0.2 nM with CD20 [2] and 0.7 nM with CD20 [3].
